In patent US20250101087A1 (AbbVie / Abbott, published 2025):
Square brackets hold non-standard residues; d marks the D form. Primed or numbered codes have the meaning given here. Ends that are not written are not given here. pGlu = O=C1CC[C@@H](C(=O)O)N1; Biotin′ = not defined here

T1: Mouse/Rat Aβ 1-40 (mouse/rat)
T1 construct: also called Aβ1-40 from rat and mouse
T1 peptide: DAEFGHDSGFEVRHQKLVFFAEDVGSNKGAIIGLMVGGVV

T2: E3-16-EFRHDSGYEVHHQK-Biotin (human)
T2 construct: N-terminal glutamate is not pyroglutamated
T2 peptide: EFRHDSGYEVHHQK-{Biotin′}

T3: pEG6 Pyr …-Biotin (human)
T3 peptide: [pGlu]FRGDSGYEVHHQK-{Biotin′}

T4: pEG7 Pyr …-Biotin (human)
T4 peptide: [pGlu]FRHGSGYEVHHQK-{Biotin′}

T5: pEG8 Pyr …-Biotin (human)
T5 peptide: [pGlu]FRHDGGYEVHHQK-{Biotin′}

T6: pEF10 Pyr …-Biotin (human)
T6 peptide: [pGlu]FRHDSGGEVHHQK-{Biotin′}

T7: pE3-16 Pyr-…-Biotin (human)
T7 peptide: [pGlu]FRHDSGYEVHHQK-{Biotin′}

B1: Comparator Ab1 (antibody, human IgG1, kappa, V domains shown)
VH: QVQLVQSGAEVKKPGSSVKVSCKASGYDFTRYYINWVRQAPGQGLEWMGWINPGSGNTKYNEKFKGRVTITADESTSTAYMELSSLRSEDTAVYYCAREGITVYWGQGTTVTVSS
VL: DIVMTQTPLSLSVTPGQPASISCKSSQSLLYSRGKTYLNWLLQKPGQSPQLLIYAVSKLDSGVPDRFSGSGSGTDFTLKISRVEAEDVGVYYCVQGTHYPFTFGQGTKLEIKR
notes: Detected with anti-human IgG in the in vivo study; also called comparator antibody Ab1
B2: AC-264713, hu Aβ (AC-264713) [hu IgG1/K] (antibody, V domains shown)
VH: EVQLQESGPGLVKPSQTLSLTCTFSGFSLSTSGMGVSWIRQPPGKGLEWLAHIYWDDDKRYNPYMKRRLTISKDTSKNQVSLKISSVTAADTAVYYCARRADDYDVGFAYWGQGTLVTVSS
VL: DIQMTQSPSSVSASVGDRVTITCLASQTIGTWLAWYQQKPGKSPKLLIYAATSLADGVPSRFSGSGSGTDFTLTISSLQPEDFATYYCQQLYSSPFTFGQGTKLEIKR
notes: It is the only humanized antibody described

Columns and labels:
[1] = target: T8, amyloid plaques in human AD brain tissue (human, UniProt P05067 674-713); experiment: immunostaining of unfixed human AD cortex sections, % area covered, 6 donors fitted together
T8 construct: Target presented in tissue sections; also called plaques in AD brain tissue

human Aβ 1-40 fibrils = human Aβ 1-40 fibrils (human); experiment: direct binding ELISA
Mouse/Rat Aβ 1-40 = target: T1, Mouse/Rat Aβ 1-40; experiment: direct binding ELISA
[2] = target: T2, E3-16-EFRHDSGYEVHHQK-Biotin; experiment: direct binding ELISA, peptide coated 100 ng/well, average ± SD of three experiments
Experimental: (§1) Recombinant human Aβ biotinylated peptides were diluted in distilled water. Aβ peptides were diluted to a working concentration of 2 μg/mL, and 50 μL per well (100 ng/well) was added to 96-well half area high-binding ELISA plates. The plates were incubated overnight at 4° C. shaking at 100 rpm. Following coating, the plates were washed four times with 190 µL/well of 1×PBS using an automated plate washer. The plates were blocked with 190 µL/well of 2% BSA in DPBS and incubated for 1 hr. at RT. Reagents for ELISA were diluted in 0.25% BSA in DPBS.
(§2) After incubation for blocking, plates were washed four times with 190 μL/well of 1×PBS using automated plate washer. […] The plates were incubated for 30 min at RT. After four washes with PBS, 50 μL of TMB substrate was added into each well, and the plates were incubated at RT for about 5-10 min until color developed. The reaction was stopped by adding 50 μL per well of 2N sulfuric acid. Plates were read on a ClarioStar plate reader to obtain the absorbance at 450 nm (OD₄₅₀). […] Three independent experiments were performed.

pEG6 Pyr …-Biotin = target: T3, pEG6 Pyr …-Biotin; experiment: as above
Experimental: as §1, §2

pEG7 Pyr …-Biotin = target: T4, pEG7 Pyr …-Biotin; experiment: as above
Experimental: as §1, §2

pEG8 Pyr …-Biotin = target: T5, pEG8 Pyr …-Biotin; experiment: as above
Experimental: as §1, §2

pEF10 Pyr …-Biotin = target: T6, pEF10 Pyr …-Biotin; experiment: as above
Experimental: as §1, §2

pE3-16 Pyr-…-Biotin = target: T7, pE3-16 Pyr-…-Biotin; experiment: as above
Experimental: as §1, §2

[3] = target: T8, amyloid plaques in human AD brain tissue; experiment: immunostaining of unfixed human AD cortex sections with biotinylated antibody, % area covered, 6 donors fitted together
Experimental: Unfixed, 20 μm tissue sections were prepared from cerebral cortex of human cadaver AD brain using a cryostat and were thaw-mounted onto glass slides. The tissue sections were then incubated in Tris-buffered saline (TBS) containing 0.3% H₂O₂ for 10 minutes. After three washes with TBS, the sections were incubated in TBS containing 3% milk for 30 minutes. […] After three washes with TBS, the immunoreactivity was visualized by incubation in 1:400 ABC Elite for one hour followed by DAB for five minutes.
The images were acquired from all the samples using a slide scanner. […] Using the software, the gray matter was outlined, and the “threshold” was determined by an observer who was blind to the staining conditions. The threshold was set so that the DAB signal was recognized by the software and the background/non-specific staining was excluded from the analysis. Once an appropriate threshold was set, the software measured the percentage of the area of interest containing the positive signal.
A nonlinear regression analysis was carried out using Prism Version 9.1.0 (Graph Pad Software). A variable slope model, 9% area covered by IR=Bottom+(X^{HillSlope})*(Top−Bottom)/(X^{HillSlope}+EC₅₀^{HillSlope}), was used, where Bottom was fixed to zero, and Top was fixed to 10% as the typical total area covered by plaques. Data for all six donors were analyzed in a combined data fit.

T8 sequence (P05067 674-713): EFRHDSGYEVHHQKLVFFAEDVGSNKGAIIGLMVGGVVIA

| Binder | EC50 [1] | binding result (human Aβ 1-40 fibrils) | binding result (Mouse/Rat Aβ 1-40) | EC50 [2] | EC50 (pEG6 Pyr …-Biotin) | EC50 (pEG7 Pyr …-Biotin) | EC50 (pEG8 Pyr …-Biotin) | EC50 (pEF10 Pyr …-Biotin) | EC50 (pE3-16 Pyr-…-Biotin) | EC50 [3] |
| --- | --- | --- | --- | --- | --- | --- | --- | --- | --- | --- |
| B1 | 12 µg/mL | – | – | – | – | – | – | – | – | – |
| B2 | – | no binding | no binding | 900 pM | 500 pM | 400 pM | 400 pM | 500 pM | 300 pM | 0.4 µg/mL |
